The Human Domainome abundance scans (Beltran et al. 2025)
± gives the uncertainty stated by the source.

B1: Friend leukemia integration 1 transcription factor, residues 116 to 197; numbered along this chain, Q01543 (parent)
chain: NMTTNERRVIVPADPTLWTQEHVRQWLEWAIKEYSLMEIDTSFFQNMDGKELCKMNKEDFLRATTLYNTEVLLSHLSYLRES

Variants of: B1
Experiment: abundance fitness (aPCA) (normalised: wild type 0, dead -1); higher = more abundant; growth selection in yeast, the domain comes from the species named
Settings: Homo sapiens

Point of comparison: E28P, abundance fitness -0.745 ± 0.32. Against it:
- E21S — higher, -0.086 ± 0.095
- E21Q — higher, 0.066 ± 0.11
- E21I — within error, -0.474 ± 0.32
- E21L — higher, -0.096 ± 0.073
- E21V — higher, -0.111 ± 0.11
- E21M — higher, -0.045 ± 0.1
- E21W — higher, -0.295 ± 0.1
- E21K — higher, -0.243 ± 0.14
- E21T — higher, -0.131 ± 0.14
- E21N — higher, -0.091 ± 0.19
- W26T — within error, -1.01 ± 0.3
- W26P — within error, -1.04 ± 0.26
- W26N — within error, -0.732 ± 0.35
- W26Q — within error, -0.818 ± 0.26
- W26E — within error, -0.921 ± 0.33
- W26K — within error, -0.813 ± 0.26
- W26M — within error, -0.445 ± 0.13
- W26C — within error, -0.626 ± 0.29
- W26S — within error, -0.402 ± 0.13
- V23S — within error, -0.538 ± 0.19
- V23K — within error, -0.752 ± 0.29
- V23L — higher, -0.175 ± 0.068
- V23D — within error, -0.759 ± 0.3
- V23P — higher, -0.044 ± 0.14
- V23G — within error, -0.931 ± 0.27
- V23M — within error, -0.844 ± 0.3
- V23F — within error, -0.686 ± 0.43
- V23C — within error, -0.752 ± 0.22
- V23A — within error, -0.632 ± 0.14
- V23T — higher, -0.23 ± 0.13
- V23Q — within error, -0.92 ± 0.3
- V23R — within error, -0.74 ± 0.12
- V23W — within error, -0.814 ± 0.1
- V23I — within error, -0.386 ± 0.14
- Q25C — higher, 0.036 ± 0.17
- Q25H — higher, -0.083 ± 0.25
- Q25M — higher, -0.187 ± 0.12
- Q25R — higher, -0.006 ± 0.081
- Q25F — higher, -0.106 ± 0.19
- Q25W — higher, -0.251 ± 0.1
- Q25L — higher, -0.093 ± 0.15
- Q25N — higher, 0.092 ± 0.14
- Q25E — within error, -0.334 ± 0.27
- Q25P — within error, -0.915 ± 0.25
- Q25Y — higher, -0.143 ± 0.14
- Q25V — higher, 0.078 ± 0.091
- Q25A — higher, -0.066 ± 0.091
- Q25K — higher, 0.041 ± 0.13
- Q25S — higher, -0.246 ± 0.12
- Q25T — higher, -0.045 ± 0.081
- Q25G — higher, -0.039 ± 0.073
- R24H — within error, -0.161 ± 0.31
- R24F — within error, -0.044 ± 0.39
- R24P — within error, -0.804 ± 0.22
- R24S — higher, 0.093 ± 0.083
- R24G — higher, 0.039 ± 0.082
- R24T — higher, -0.058 ± 0.093
- R24A — higher, 0.106 ± 0.082
- R24L — higher, -0.011 ± 0.07
- R24M — higher, -0.131 ± 0.1
- R24C — within error, -0.347 ± 0.28
- R24E — within error, -0.348 ± 0.17
- R24I — higher, -0.183 ± 0.24
- R24W — higher, 0.054 ± 0.11
- R24K — higher, -0.09 ± 0.098
- R24Y — within error, -0.278 ± 0.29
- A30N — within error, -0.136 ± 0.3
- A30P — within error, -1.07 ± 0.26
- A30R — higher, -0.21 ± 0.053
- A30M — higher, -0.057 ± 0.07
- A30T — higher, -0.058 ± 0.063
- A30G — higher, -0.253 ± 0.086
- A30W — within error, -0.554 ± 0.078
- A30S — higher, 0.031 ± 0.065
- A30C — higher, -0.058 ± 0.14
- A30K — higher, -0.161 ± 0.11
- A30V — higher, -0.092 ± 0.059
- A30H — higher, -0.162 ± 0.13
- A30F — higher, -0.287 ± 0.13
- A30D — within error, -0.709 ± 0.18
- A30E — higher, -0.071 ± 0.11
- A30Q — higher, 0.18 ± 0.12
- A30I — higher, -0.061 ± 0.12
- A30L — higher, -0.186 ± 0.045
- K32F — within error, -0.332 ± 0.3
- K32D — higher, 0.007 ± 0.12
- K32E — higher, 0.003 ± 0.082
- K32C — within error, -0.401 ± 0.11
- W29N — higher, 0.432 ± 0.32
- W29K — higher, 0.005 ± 0.081
- W29L — higher, -0.116 ± 0.05
- W29E — higher, 0.212 ± 0.08
- W29Y — higher, -0.058 ± 0.12
- W29I — higher, -0.029 ± 0.22
- W29A — higher, 0.101 ± 0.062
- W29V — higher, -0.14 ± 0.071
- W29H — higher, -0.033 ± 0.12
- W29P — within error, -1.01 ± 0.18
- W29G — higher, 0.168 ± 0.052
- W29Q — higher, 0.084 ± 0.09
- W29S — higher, 0.112 ± 0.084
- W29D — higher, 0.189 ± 0.35
- W29T — higher, 0.13 ± 0.082
- W29C — higher, -0.041 ± 0.091
- W29R — higher, 0.003 ± 0.055
- L27F — higher, 0.079 ± 0.14
- L27S — within error, -0.438 ± 0.093
- L27G — higher, -0.284 ± 0.12
- L27R — within error, -0.876 ± 0.18
- L27A — higher, -0.229 ± 0.11
- L27H — within error, -0.463 ± 0.26
- L27E — within error, -0.857 ± 0.33
- L27Y — within error, -0.834 ± 0.25
- L27C — within error, -0.384 ± 0.38
- L27W — within error, -0.856 ± 0.19
- L27T — within error, -0.383 ± 0.2
- L27K — within error, -0.708 ± 0.22
- L27V — higher, 0.035 ± 0.093
- L27D — within error, -0.532 ± 0.37
- L27I — higher, -0.132 ± 0.19
- H22R — higher, -0.266 ± 0.088
- H22L — within error, -0.386 ± 0.069
- H22S — higher, -0.246 ± 0.098
- H22D — higher, 0.116 ± 0.13
- H22T — higher, -0.274 ± 0.092
- H22C — within error, -0.529 ± 0.33
- H22Y — within error, -0.365 ± 0.21
- H22V — higher, -0.17 ± 0.1
- H22I — within error, -0.201 ± 0.3
- H22M — higher, 0.028 ± 0.087
- H22N — higher, -0.007 ± 0.14
- H22P — within error, -1.02 ± 0.34
- H22G — higher, -0.106 ± 0.079
- H22Q — higher, 0.045 ± 0.088
- H22E — higher, 0.062 ± 0.14
- H22K — higher, -0.199 ± 0.047
- H22A — within error, -0.318 ± 0.15
- E28Q — higher, 0.005 ± 0.12
- E28A — higher, 0.006 ± 0.11
- E28W — higher, -0.285 ± 0.11
- E28I — higher, 0.141 ± 0.23
- E28K — higher, 0.058 ± 0.098
- E28R — higher, -0.018 ± 0.063
- E28V — higher, -0.035 ± 0.076
- E28S — higher, -0.123 ± 0.12
- E28T — higher, -0.017 ± 0.098
- E28M — higher, -0.187 ± 0.15
- E28F — within error, -0.366 ± 0.28
- E28Y — higher, -0.12 ± 0.25
- E28L — higher, -0.013 ± 0.069
- E28G — higher, -0.189 ± 0.13
- E28C — higher, 0.009 ± 0.16
- E28N — within error, -0.377 ± 0.49
- I31W — within error, -0.48 ± 0.11
- I31F — within error, -0.549 ± 0.22
- I31R — higher, 0.063 ± 0.071
- I31K — higher, -0.059 ± 0.1
- I31H — higher, -0.034 ± 0.36
- I31G — within error, -0.384 ± 0.073
- I31L — higher, -0.305 ± 0.071
- I31Q — higher, -0.075 ± 0.1
- I31V — higher, -0.001 ± 0.058
- I31M — higher, 0.08 ± 0.095
- I31S — higher, 0.041 ± 0.069
- I31T — higher, -0.023 ± 0.11
- I31P — within error, -1.22 ± 0.47
